Among the data in paper PMC3156817 (Nature Communications, 2011) are Kd and Ki values, retold here.

One assay concerns the target huPrP23-231 (human) (UniProt P04156). As to the kind of experiment: DELFIA.
The target of a further assay is huPrP23-231 (Homo sapiens, UniProt P04156). As to the kind of experiment: DELFIA.

Take “Aβ-derived diffusible ligands (ADDLs) prepared from Aβ1-42 (from UniProt P05067) (peptide)”: in the assay with huPrP23-231 (human), the Kd was 100 nM. The same measure, in the same setting: the result for “bADDLs prepared from biotinylated Aβ1-42 (bAβ1-42) (from UniProt P05067) (peptide)” reads 82 nM.

B1: ICSM-18 (antibody, V domains shown)
VH: EVQLQQSGPELVKPGSSVKISCKASRNTFTDYNLDWVKQSHGKTLEWIGNVYPNNGVTGYNQKFRGKATLTVDKSSSTAYMELHSLTSEDSAVYYCALYYYDVSYWGQGTLVTVSS
VL: QIVLTQSPAIMSASPGEKVTMTCSASSSVSYMHWYQQKSGTSPKRWIYDTSKLASGVPARFSGSGSGTSYSLTISSMEAEDAATYFCHQWRSNPYTFGGGTKLEIK
In the assay with huPrP23-231, B1 gave an equilibrium dissociation constant (Kd) of about 10 nM and a Ki of about 20 nM.
